Laboratory results as given in article PMC3433420.
“And” between values parts separate entries of the source, which are not always exact repeats. Equal values may be shown once.

Experiments:
[1] = target: ErbB1 pY801 phosphopeptide, rhodamine-labelled (human); assay: fluorescence polarisation; saturation binding in solution: rhodamine peptide fixed at 10 nM, protein titrated 0.002-10 uM, 20 min at room temperature; assay buffer 20 mM HEPES, 100 mM KCl, 0.1% Tween-20, 5 mM DTT, pH 7.8; apparent KD
[2] = target: ErbB1 pY900 phosphopeptide, rhodamine-labelled (human); assay: as above
[3] = target: ErbB1 pY978 phosphopeptide, rhodamine-labelled (human); assay: as above
[4] = target: ErbB4 pY833 phosphopeptide, rhodamine-labelled (human); assay: as above
[5] = target: MET pY1313 phosphopeptide, rhodamine-labelled; assay: as above
[6] = target: ErbB2 pY685 phosphopeptide, rhodamine-labelled (human); assay: as above
[7] = target: ErbB4 pY906 phosphopeptide, rhodamine-labelled (human); assay: as above
[8] = target: KIT pY936 phosphopeptide, rhodamine-labelled; assay: as above
GRAP2 SH2 domain (human) = GRAP2 SH2 domain (human) (UniProt O75791); assay: peptide or protein array; SH2/PTB proteins spotted on aldehyde slides, rhodamine peptide titrated in buffer B (20 mM HEPES, 100 mM KCl, 0.1% Tween-20, 5 mM DTT, pH 7.8), 1 h at room temperature; replicate assays
GRB7 SH2 domain (human) = GRB7 SH2 domain (human) (UniProt Q14451); assay: as above
ITK SH2 domain (human) = ITK SH2 domain (human) (UniProt Q08881); assay: as above
LCK SH2 domain (human) = LCK SH2 domain (human) (UniProt P06239); assay: as above
[9] = target: PLCG1 tandem SH2 domains (human); assay: as above
[10] = target: SH2D3A SH2 domain (human) (UniProt Q9BRG2); assay: as above
SRC SH2 domain (human) = SRC SH2 domain (human) (UniProt P12931); assay: as above
[11] = target: SYK N-terminal SH2 domain (human); assay: as above
TEC SH2 domain (human) = TEC SH2 domain (human) (UniProt P42680); assay: as above
TNS3 SH2 domain (human) [12] = target: TNS3 SH2 domain (human) (UniProt Q68CZ2); assay: as above
[13] = target: PIK3R1 N-terminal SH2 domain (human); assay: SPR; Biacore 3000; 6X His SH2 proteins held on a Ni-NTA chip, dye-free peptides in solution, equilibrium
[14] = target: PLCG1 C-terminal SH2 domain (human); assay: as above
TNS3 SH2 domain (human) [15] = target: TNS3 SH2 domain (human) (UniProt Q68CZ2); assay: as above
[16] = target: PIK3R3 C-terminal SH2 domain (human); assay: as above
SHC3 SH2 domain (human) = SHC3 SH2 domain (human) (UniProt Q92529); assay: as above
BLK SH2 domain (human) = BLK SH2 domain (human) (UniProt P51451); assay: peptide or protein array; SH2/PTB proteins spotted on aldehyde slides, rhodamine peptide titrated in buffer B (20 mM HEPES, 100 mM KCl, 0.1% Tween-20, 5 mM DTT, pH 7.8), 1 h at room temperature; replicate assays
FES SH2 domain (human) = FES SH2 domain (human) (UniProt P07332); assay: as above
[17] = target: PIK3R3 tandem SH2 domains (human); assay: as above
[18] = target: PLCG2 tandem SH2 domains (human); assay: as above
[19] = target: RASA1 N-terminal SH2 domain (human) (UniProt P20936); assay: as above
[20] = target: SH3BP2 SH2 domain (human) (UniProt P78314); assay: as above
[21] = target: SYK tandem SH2 domains (human); assay: as above
TNS1 SH2 domain (human) = TNS1 SH2 domain (human) (UniProt Q9HBL0); assay: as above
YES1 SH2 domain (human) = YES1 SH2 domain (human) (UniProt P07947); assay: as above
Chain of YES1 SH2 domain (human) (P07947 158-255): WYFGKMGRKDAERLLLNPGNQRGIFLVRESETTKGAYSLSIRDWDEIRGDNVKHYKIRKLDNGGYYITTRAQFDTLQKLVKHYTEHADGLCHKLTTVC

Chain of SH2D3A SH2 domain (human) (Q9BRG2 15-114): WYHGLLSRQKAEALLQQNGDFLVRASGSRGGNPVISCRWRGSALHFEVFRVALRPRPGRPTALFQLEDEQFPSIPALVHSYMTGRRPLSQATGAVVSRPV
Chain of LCK SH2 domain (human) (P06239 127-224): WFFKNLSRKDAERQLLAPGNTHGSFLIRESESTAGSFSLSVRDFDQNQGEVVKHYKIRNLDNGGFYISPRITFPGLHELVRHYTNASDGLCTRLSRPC
Chain of GRB7 SH2 domain (human) (Q14451 431-527): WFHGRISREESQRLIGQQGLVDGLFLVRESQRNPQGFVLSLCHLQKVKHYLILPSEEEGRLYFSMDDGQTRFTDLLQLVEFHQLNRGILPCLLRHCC
Chain of TNS3 SH2 domain (human) (Q68CZ2 1172-1282): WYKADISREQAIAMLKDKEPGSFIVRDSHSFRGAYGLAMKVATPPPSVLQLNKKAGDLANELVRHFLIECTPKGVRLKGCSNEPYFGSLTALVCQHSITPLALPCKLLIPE
Chain of GRAP2 SH2 domain (human) (O75791 58-149): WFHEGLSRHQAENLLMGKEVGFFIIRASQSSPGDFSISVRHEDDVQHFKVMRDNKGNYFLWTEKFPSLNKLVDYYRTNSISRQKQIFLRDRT
Chain of ITK SH2 domain (human) (Q08881 239-338): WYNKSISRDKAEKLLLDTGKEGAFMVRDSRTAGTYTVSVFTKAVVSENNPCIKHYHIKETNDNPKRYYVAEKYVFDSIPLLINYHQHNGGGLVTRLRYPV
Chain of SHC3 SH2 domain (human) (Q92529 499-590): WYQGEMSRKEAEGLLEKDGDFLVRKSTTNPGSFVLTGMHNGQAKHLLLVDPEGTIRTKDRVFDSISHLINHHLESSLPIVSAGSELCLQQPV
Chain of FES SH2 domain (human) (P07332 460-549): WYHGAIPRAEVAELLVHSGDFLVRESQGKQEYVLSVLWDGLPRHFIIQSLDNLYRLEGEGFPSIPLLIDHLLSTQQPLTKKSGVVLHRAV
Chain of SH3BP2 SH2 domain (human) (P78314 457-555): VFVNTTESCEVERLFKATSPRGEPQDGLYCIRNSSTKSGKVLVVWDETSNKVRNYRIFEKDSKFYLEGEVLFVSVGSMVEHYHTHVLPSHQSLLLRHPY
Chain of TNS1 SH2 domain (human) (Q9HBL0 1567-1676): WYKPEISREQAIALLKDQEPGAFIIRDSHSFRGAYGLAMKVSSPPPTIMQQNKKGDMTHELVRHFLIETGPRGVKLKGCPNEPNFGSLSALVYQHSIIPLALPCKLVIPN
Chain of RASA1 N-terminal SH2 domain (human) (P20936 whole entry, the tested form may be a part): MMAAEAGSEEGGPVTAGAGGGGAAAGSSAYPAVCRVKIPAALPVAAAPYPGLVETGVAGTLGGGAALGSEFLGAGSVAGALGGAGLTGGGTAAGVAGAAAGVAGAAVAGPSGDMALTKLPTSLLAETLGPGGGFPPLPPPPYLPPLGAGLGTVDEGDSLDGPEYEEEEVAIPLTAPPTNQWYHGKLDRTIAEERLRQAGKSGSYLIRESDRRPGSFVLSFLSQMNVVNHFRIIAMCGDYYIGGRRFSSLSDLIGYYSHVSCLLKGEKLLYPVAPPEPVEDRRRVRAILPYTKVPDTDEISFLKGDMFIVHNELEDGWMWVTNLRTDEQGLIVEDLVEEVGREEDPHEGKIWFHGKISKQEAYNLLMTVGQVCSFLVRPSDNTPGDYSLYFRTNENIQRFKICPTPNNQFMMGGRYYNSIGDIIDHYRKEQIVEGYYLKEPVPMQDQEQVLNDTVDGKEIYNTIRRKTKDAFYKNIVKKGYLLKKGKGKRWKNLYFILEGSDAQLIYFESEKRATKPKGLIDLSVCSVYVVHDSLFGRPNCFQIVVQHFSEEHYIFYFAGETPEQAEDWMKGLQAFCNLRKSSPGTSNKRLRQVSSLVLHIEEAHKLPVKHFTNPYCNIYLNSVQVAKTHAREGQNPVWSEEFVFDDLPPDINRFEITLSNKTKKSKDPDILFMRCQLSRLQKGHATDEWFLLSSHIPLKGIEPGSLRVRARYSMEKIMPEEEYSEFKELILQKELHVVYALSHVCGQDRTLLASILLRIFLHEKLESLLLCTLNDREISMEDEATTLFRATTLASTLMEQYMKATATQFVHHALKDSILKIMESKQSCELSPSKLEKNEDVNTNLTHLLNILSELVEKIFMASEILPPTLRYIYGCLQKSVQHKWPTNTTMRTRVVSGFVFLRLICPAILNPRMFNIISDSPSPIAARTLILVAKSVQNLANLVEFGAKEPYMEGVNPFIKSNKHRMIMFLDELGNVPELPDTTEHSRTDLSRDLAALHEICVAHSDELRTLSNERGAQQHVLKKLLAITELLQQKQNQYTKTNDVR
Chain of TEC SH2 domain (human) (P42680 247-345): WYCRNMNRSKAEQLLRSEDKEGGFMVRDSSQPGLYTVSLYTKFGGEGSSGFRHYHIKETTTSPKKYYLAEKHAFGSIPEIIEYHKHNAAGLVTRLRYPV
Chain of BLK SH2 domain (human) (P51451 124-220): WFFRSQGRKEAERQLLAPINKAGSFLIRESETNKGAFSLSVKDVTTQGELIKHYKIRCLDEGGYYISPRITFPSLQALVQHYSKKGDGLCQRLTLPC

## PLCG1 C-terminal SH2 domain (domain or fragment)
[1]
  Kd: 9440 nM
[2]
  Kd: 15500 nM
[3]
  Kd: 1370 nM
[4]
  Kd: 4730 nM
[5]
  Kd: 2280 nM

## PIK3R3 C-terminal SH2 domain (domain or fragment)
[2]
  Kd: 5830 nM
[6]
  Kd: 4430 nM
[7]
  Kd: 1840 nM
[8]
  Kd: 8380 nM
[5]
  Kd: 255 nM

## ErbB3 pY789 phosphopeptide, rhodamine-labelled, for protein microarrays
GRAP2 SH2 domain (human)
  Kd: 1310 nM
GRB7 SH2 domain (human)
  Kd: 1190 nM
ITK SH2 domain (human)
  Kd: 1160 nM
LCK SH2 domain (human)
  Kd: 550 nM and 1140 nM and 1120 nM
[9]
  Kd: 380 nM
[10]
  Kd: 170 nM and 401 nM and 402 nM
SRC SH2 domain (human)
  Kd: 1850 nM and 424 nM
[11]
  Kd: 609 nM and 1330 nM
TEC SH2 domain (human)
  Kd: 1660 nM
TNS3 SH2 domain (human) [12]
  Kd: 802 nM

## ErbB1 pY801 phosphopeptide, dye-free
[13]
  Kd: 2800 nM
[14]
  Kd: 2330 nM
TNS3 SH2 domain (human) [15]
  Kd: 916 nM

## ErbB4 pY906 phosphopeptide, dye-free
[16]
  Kd: 566 nM
SHC3 SH2 domain (human)
  Kd: 6710 nM

## ErbB3 pY1132 phosphopeptide, rhodamine-labelled, for protein microarrays
BLK SH2 domain (human)
  Kd: 199 nM
FES SH2 domain (human)
  Kd: 3200 nM
GRB7 SH2 domain (human)
  Kd: 10 nM
[17]
  Kd: 7.73 nM
[18]
  Kd: 1190 nM
[19]
  Kd: 5150 nM
[20]
  Kd: 6400 nM
[11]
  Kd: 2400 nM
[21]
  Kd: 785 nM and 4980 nM
TNS1 SH2 domain (human)
  Kd: 1.44 nM
YES1 SH2 domain (human)
  Kd: 735 nM and 2260 nM
